Data as given in the DeepSol protein solubility set.

Test: soluble on expression in E. coli; label from the status in PepcDB or PDB records

| Sequence | soluble on expression in E. coli |
| --- | --- |
| MYALEIEQLRKTYAGGFEALKGISLQVKKGDFYALLGPNGAGKSTTIGIISSLVNKTSGKVTVFGYDLDSQLELAKQKLGLVPQEFNFNPFETVEQIVLQQAGYYGVPKALAKERAKKYLTQLDLWEKRSERARNLSGGMKRRLMIARALMHEPQLLILDEPTAGVDIELRRSMWEFLKQINAQGVTIILTTHYLEEAEMLCRHIGIIQRGELIENTTMKSLLGKLHVETFVLDVDGNAPIAPLQGVVKQQMVEGSLEIELEKSQGINHVFTQLTEQGVKVLSMRNKVNRLEELFVSIVNSGKRG | not soluble |
| KAPFLILMHRNPDPDAMASAMALKTIFDKWGVSSEIAYGGKIGYDENKAMVNLLSIKLNPIDEINLSRYCSIAVVDSSSSKTLPIDVEDSKLSVIIDHHNDSDIVAKYMDILPEIGATATILTKYLLELEIAPNRDLATALYYAITSDTNYFKRKTSKKDFEAASYLQGLMDPKVLEMIENPDM | not soluble |
| METQLSVQLGLDSLLTDFGLESVMNKQQQLFANMGLSDIGAPTPSTAIPVPNAHLHPSMVAGSDPSNPVVGFGFGSPSSTTSSSPPLSNSPTIEQQQHAQLTAMMQGIMSNNNVAVSNGSGVQVASVPAVHCSGCKSNETATSFCQDCNANLCDNCTMAHKFMHCFADHRVVSLTTPGTGSSSSSTSSSSSASSTSSHQVPSLGGKQSPDSMMLGSGKRSVLCLQHRASELVFFCVSCNLAICRDCTVSDHPSGTHQYELIADVADKQMLKMEQLIADARSKHADMLDMFKQVDNKQQVLTASLHNAHAQLEETVSNLINVIQDQKKTLAKDIDNAFAAKQIQLTMVDKRIQSMADKLSQTIEFSRRLMSFASPAEVMVFKQLLDTRLQLFLGFNPDTSGVLMTPCEIEYLGAAGLFNNSASTVSQLLGSVHGGSPINNAPAANDFLMPQAGLAPIGRAQSRIIPIEQNQLARSPPHHIAGSLPMNAYSDSNLLRPNKDFGGSSQSLGPFNPLGASVPGAAADPFSSQYDKWSLGVEPSVGGLLEGGNVDEEKFQTLFPPSRSQIKRQKMIYHCKFGEFGVMEGQFTEPSGVAVNGQGDIVVADTNNHRIQVFDKEGRFKFQFGECGKRDGQLLYPNRVAVNRTTGDFVVTERSPTHQIQVYNQYGQFLRKFGANILQHPRGVCVDSKGRIIVVECKVMRVIIFDMFGNILQKFSCSRYLEFPNGVCTNDKNEILISDNRAHCIKVFSYEGQYLRQIGGEGVTNYPIGVGINSLGEVVVADNHNNFNLTVFSQDGTMIGALESRVKHAQCFDVALVDDGSVVLASKDYRLYLYRFLPATSGQSTSSASSQI | not soluble |
| MGSDKIHHHHHHMKLLSVVKIWDRGDHNAFTDLIRFDGKLYCAFREGSAHVSPDGALRILVSEDDGSSWKEAALIKLDEGDLRDARLLVWLGELYLFGARAIAGEPLQSLMWRSSDGCRWQAAEHCADTGYWLWRVIADNNEQSVSRAPALYGVAYRPGPDGDVRLYRAAPQGPLKGTDFIPLVAALNSEGYVNETGLEITDGIFTCLLRRDPVWDDRRNGLLGKAKAPFMDWQWLELDCRIGGPVVFRWCNRLLAIVRLYDEKVRTSLVEICETTGHVAEHLSLPSGGDTSYAGVVMEHSVKGDELKVSYYSSHEGKTAIYFAAIRLE | not soluble |
| MGSDKIHHHHHHVTPLPIVDPGPPVLYDVEHVTSYRYALPVTVSHQCAHLKPRSFATQQVLSTQLGATPLPEIRSERIDYFGNTVTSFSLSEPHESLTVVAQSQVRILPPTLPAAADTPRWEEVAERLRLGFGADTLDACQMLYPSGHVKTLPEVRAYALPSFPPDRPILEAAIDLTGRIHADFTYDPTATTVATPLAEVLAKRRGVCQDFAHLQIACLRSMGLAARYVSGYVLTCSTESGERLEGGDASHAWVSLYVPCAAAPNGGWIDLDPTNDKLITREHVTVAWGRDFEDVSPIKGVMLGGGAQTVSVAVTLRPRTNGPRARTESPA | not soluble |
| MSSAGEANCAMIGGSLSAARQLDGSVIGMCALPNGKRCSEQSLAAGSCGSY | not soluble |
| MILTEQEKAEVEANRRRYEQHKALGQQQAPKALPPPTPRDGAPIAPESIIHRETVPGGWYYVTKLGRGEAVRIINTSGTSCVSIQAWNALDPSERLNHADTIKVQWAASLRKGRVILSDMGRALLSIIEDTSGAHDTMVGGSNAATNAERYGVGSFRNARDNFVLAAGKLGLDRRDVHPSIALFAPVAVDSQGRFEWHGERRHKGDFVDLRAELDLLIAVSNCPHPLDPSPSYAPGDIELIRYQAPQPASDDLCRTVSLEAKRAFENNAFYLAGAAGRALEHHHHHH | soluble |
| MGSDKIHHHHHHMRLFTSKSRYLIGVDIGTTSVKLVDIQRQQGVFHLRSYGTEILSEGIVIDKLIVDTEAVGNTIAGLARRCQAVGSSAATAVSGSAVITKIIDMDMVLNDVEREAQIRLDADQYIPYPLDDVNLDFEVLGPSLINDDMVQVLLAASRSENVDQRVDALTFGGLQTKVMDIESHAIERAFGLMVDSLPNLPELVALVDIGHNQTTLYVAKNGEFIYSREQLFGGSQLTEAIQNRYGLSAEEASISQREHALPEDYYPDVLTPFIENTIQQITRSLQFYFSSSQYSSIDHVVLAGGSSAIAGLAGMAQQRLGVPVSIANPFINMTIAPHIDHEQLAIDAPSLMAACGLALRSFD | not soluble |
| MGSDKIHHHHHHMIDSHAHLISADVERYPTSPLSGELEPGALDNPVTAERLLALMDEQGIERALAVQRAHIYGFNNAYVCDAAQRYPERLRALGMVDALDQNIREQVRHWVGERGAVGIRLTEPFKGADPSWFASPEAMAAWETVSELGGSVRLHFYRWNREAALKALKPVLQRFPQTTVVLDHFSNIVGESGAPDHGVDATLLEMVEHSNVYLLYSMINLGKLAAAQMAAAPMVERVVREFGADRVMWGSDVAQSKGSYAQMVALAKESVSLLSETDQRKVLHDTAHAVYWGTR | not soluble |
| METEICEQLGDLHLDKEAILLRAEQIEQDIKARKYSVIPPLSDEEQNLLDAEIAKRAAPPPGVPDAADFPLHDIVKELGLDKPVDGTDPEFYEELKAKDANTVYKNMKDVPDSIAAKYLPDLARRFVEFERRVKRVERMLWALPREDRSLEEDRFEILTELLDKSCQGLEIWEEHCERKIPLGHRCVLEGELIHLITSKFDLIDKICGEFDKLKNKRSEVNDERDMLRYEIRHCDMIFTEIHEKFLKSYLEMDW | not soluble |
| MSQNSLPSEVSNATIDKELYYHGLLPSEDVRQLLSNNGDFLLRSSEPEPGSPRTHILSVMFNNRLDDINSIKHFVVNFVDGKYFINDKMSFPSIQKMLGTYQRNNTEIKEGCMLVNPIRRQFWELEHDQITIHKKLGEGAFGEVSSGVMKFKKGMKTVQVAIKQVKLDKTGKAKIKDFLAEARTMRKLGHQNIIKFYGVGVLQEPLYLVMELAVNGALDSFLKKNEDLSVDKKTEMILQAAWGLEYIHGKPMLHRDIAARNCLYTDGKVKISDFGLTRNGTVYQIKPNTKSPIRWLAIETIKTMICSEKTDVWAYGVLCWEIFNNAAEPYPGMKPADVATQVANGYRMPPYPHAQAEIQTMMARCNAENPNDRPSMAEIAEILQRVTETPRPNFTAIAKKEAEELLLMNSVTTKTTARRKKSNVKLPKGMSKN | not soluble |
| MSEITTLQPSLLWKWFDQICAIPHPSHYEDTLANFIVNWAKEKHFFVERDEVGNVLIRKPATKGMENHTPVVLQAHLDMVPQANEGNPHDFTKDPIQPYIDGEWVKARGTTLGSDNGIGLASTLAVLESNDLAHPPLEVLLTMTEETGMDGAKGLRHNWLQSEILINTDTEEIGEIYIGCAGGINANFEIPVQYETNTFEHSAQITLKGLRGGHSGGDIHTGRANAIKVLARVLAKLSQNQPHFALSEIRGGSIRNAIPREAAAVLAFNGDVKTIESAVENLAVVLKEELAIAEPNFTLFVESAEKAPTVFTAQSTQTVINALNVLPNGVIRNSDVVKNVVESSLSVGVLKTEGNVVKSTILVRSLIESGKYYVTEMLSSLAILANAKVEFSAPYPGWQPVNDSTILDVTRKHYAEVLGEQPVVKVIHAGLECGLLKEHYPNIEMISVGPTIRNAHSPDEKVEIATVQTYWDLLTRVLADIPAK | soluble |
| MDGDQVKGILKSGNNSAQFSLKAAKFDEVNILATFHPAGKDYGHMIIDEPKTPFVFEEDLPKELDTNALIEKLRHTSKSEMPAFGIEGDSEESSADEDFPESVEEKVRRMEFERRRKVHYKEFYSVPLARRLIADEFAELTSSEFNIHCEGGMESCEACSENNQLDGEASNLTQTKYSYSESQSEYRISDHSEPEPGFSPSHHCYQKLKAELFSKAEPEELASLTHLHRMPSVNDDEPSREPRVPYPSVVPTQTQNLHEHKSSLKITSEKPTPARICKSNPDNRPGTSKKETRLEHHHHHH | not soluble |
| MSLGTDLLESGEGNKYLVVEKHLKQAINGGVYQADDRLPSIRSLSQELNVSKNTVIRAYQELEAQNLVYSVPKSGYRVKVALPTSRSIPDPTRVDLLSICKEILTYPEYQERLPAGSAHPNIDSPAIKSLYAEIGRHSRQQTHVPSHYQLPPGDHLLIKQLAKITQDLGTPAKLDEIMVTHGAQQAISLALRATTQKGDIVAVESPCYFGNLLMLESLGLKVVEIPSCPRDGMCPEALAKTMATWDIKALIVTPNFTNPTGAMMPLEKRQQLLLASGNIPIIEDDVFGGLSYDKPLPSLSLLDDKQRVIYVNSLSKTLDSRLRIGWMLAGRYRDQIEQYLLCENMGSLNLMQSAVATFLTSGKYRTHTARMGRVYQNNMRRFIQMLHQYLDEYESLKNRYQINAVQGSFLLWLRLPEDTDSYALYQACNKHRISLLPGTVFGTQEQYRHCVRLSVANFGHETDWSHAMQTLAKLIAKRVCEGHHHHHH | not soluble |
| MTQYVFEMGMTCNGCANAARKVLGKLGEDKIKIDDINVETKKITVTTDLPASDVLEALKKTGKEIKQLQ | not soluble |
| MSLMKNMARKNQKAPWEEEEEIIWVSRTELKNDMLALQKLGEELVELKPSALAKFPLPEDLAEAIKDAQRFKNEARRRQLQYIGKLMRHIDPEPLQAALDKLRNKHSQTTALLHKLEQLRDRIVAEGDSAIEVAMEQYPEADRQRLRLLARQASKEKAGNKPPKSSREIFQLLKEAMLAKQEIEEESEDDLDSAEEGHHHHHH | soluble |
| GDLVGPGCAEYAAANPTGPASVQGMSQDPVAVAASNNPELTTLTAALSGQLNPQVNLVDTLNSGQYTVFAPTNAAFSKLPASTIDELKTNSSLLTSILTYHVVAGQTSPANVVGTRQTLQGASVTVTGQGNSLKVGNADVVCGGVSTANATVYMIDSVLMPPA | soluble |
| SNAIIAGETSIPSQGENMPAYHARPKNADGPLPIVIVVQEIFGVHEHIRDLCRRLAQEGYLAIAPELYFRQGDPNEYHDIPTLFKELVSKVPDAQVLADLDHVASWAARHGGDAHRLLITGFCWGGRITWLYAAHNPQLKAAVAWYGKLVGEKSLNSPKHPVDIAVDLNAPVLGLYGAKDASIPQDTVETMRQALRAANATAEIVVYPEADHAFNADYRASYHEESAKDGWQRMLAWFAQY | soluble |
| MSLTDVEEQQLTVLKDPNCGCCEKWLQALPDSFSVSVQHPNNLTQRKRDSGISAEVQSCHTAISSNGYVFEGHVPPTLVSHYLAGKKSENGIGLTVPGMPVGSVGMEMGTRFQPYTVYEIKKDGSITPYQQIASLEQQQALSNEGLEGHHHHHH | soluble |
| MVDIIIAEHAGFCFGVKRAVKLAEESLKESQGKVYTLGPIIHNPQEVNRLKNLGVFPSQGEEFKEGDTVIIRSHGIPPEKEEALRKKGLKVIDATCPYVKAVHEAVCQLTREGYFVVLVGEKNHPEVIGTLGYLRACNGKGIVVETLEDIGEALKHERVGIVAQTTQNEEFFKEVVGEIALWVKEVKVINTICNATSLRQESVKKLAPEVDVMIIIGGKNSGNTRRLYYISKELNPNTYHIETAEELQPEWFRGVKRVGISAGASTPDWIIEQVKSRIQEICEGQLVSSRSHHHHHH | soluble |
